Patent publication US20220048967A1 (published 2022)
Numbered stars: 1 amine (or outer) side, 2 acyl side, 3 side chain; on linkers, the order of the positions; unused ones are H or OH. Square brackets hold non-standard residues; d marks the D form. Side chains are listed from the residue outwards. Ends that are not written are not given here. * marks the point of attachment. C18 diacid = O=C(O)CCCCCCCCCCCCCCCCC(=O)*; γGlu = O=C(O)[C@H](CCC(=O)[*:2])N[*:1]; AEEA = NCCOCCOCC(=O)O; Aib = CC(C)(N)C(=O)O

Columns and labels:
human GLP-1 receptor = human GLP-1 receptor (human, UniProt P43220 24-463); assay: cell-based or functional assay
[1] = molecular target: Pro-Link-tagged Human GLP-1R (human, UniProt P43220 24-463); assay: cell-based or functional assay

Binder	hGLP1R GTPgS % Top (human GLP-1 receptor) [%]	hGLP1R GTPgS Rel EC50 (human GLP-1 receptor) [nM]	hGLP1R B-Arrestin2 % Top [1] [%]	hGLP1R B-Arrestin2 Rel EC50 [1] [nM]
Y[Aib]EGTFTSDYSILLDKK([AEEA-AEEA-γGlu-C18 diacid])AQ[Aib]AFIEYLIAGGPSSGAPPPS-NH2 (N-terminus assumed; SMILES CC[C@H](C)[C@H](NC(=O)[C@H](CC(C)C)NC(=O)[C@H](Cc1ccc(O)cc1)NC(=O)[C@H](CCC(=O)O)NC(=O)[C@@H](NC(=O)[C@H](Cc1ccccc1)NC(=O)[C@H](C)NC(=O)C(C)(C)NC(=O)[C@H](CCC(N)=O)NC(=O)[C@H](C)NC(=O)[C@H](CCCCNC(=O)COCCOCCNC(=O)COCCOCCNC(=O)CC[C@H](NC(=O)CCCCCCCCCCCCCCCCC(=O)O)C(=O)O)NC(=O)[C@H](CCCCN)NC(=O)[C@H](CC(=O)O)NC(=O)[C@H](CC(C)C)NC(=O)[C@H](CC(C)C)NC(=O)[C@@H](NC(=O)[C@H](CO)NC(=O)[C@H](Cc1ccc(O)cc1)NC(=O)[C@H](CC(=O)O)NC(=O)[C@H](CO)NC(=O)[C@@H](NC(=O)[C@H](Cc1ccccc1)NC(=O)[C@@H](NC(=O)CNC(=O)[C@H](CCC(=O)O)NC(=O)C(C)(C)NC(=O)[C@@H](N)Cc1ccc(O)cc1)[C@@H](C)O)[C@@H](C)O)[C@@H](C)CC)[C@@H](C)CC)C(=O)N[C@@H](C)C(=O)NCC(=O)NCC(=O)N1CCC[C@H]1C(=O)N[C@@H](CO)C(=O)N[C@@H](CO)C(=O)NCC(=O)N[C@@H](C)C(=O)N1CCC[C@H]1C(=O)N1CCC[C@H]1C(=O)N1CCC[C@H]1C(=O)N[C@@H](CO)C(N)=O) [Example 316]	56.7	0.766	26.1	6.08
YXEGTFTSDYSIXLDKKAQXAFIEYLIEGGPSSG (Aib2, αMeL13, K17 conjugated to (2-[2-(2-Amino-ethoxy)-ethoxy]-acetyl)2-(γ-Glu)-CO-(CH2)16-CO2H, Aib20, C-terminal amide (NH2)) [Example 300]	85.6	0.405	38.4	5.4
YXEGTFTSDYSIXLDEKAQXAFIEYLIEGGPSSG (Aib2, αMeL13, K17 conjugated to (2-[2-(2-Amino-ethoxy)-ethoxy]-acetyl)2-(γ-Glu)-CO-(CH2)16-CO2H, Aib20, C-terminal amide (NH2)) [Example 303]	74.3	0.547	47.7	17.9
YXEGTXTSDYSILLDKKAQXAFIEYLIEGGPSSG (Aib2, αMeF6, K17 conjugated to (2-[2-(2-Amino-ethoxy)-ethoxy]-acetyl)2-(γ-Glu)-CO-(CH2)16-CO2H, Aib20, C-terminal amide (NH2)) [Example 301]	91.4	0.435	93.7	2.67
YXEGTXTSDYSILLDKKAQXAFIEYLIEGGPSSG (Aib2, αMeF(2F)6, K17 conjugated to (2-[2-(2-Amino-ethoxy)-ethoxy]-acetyl)2-(γ-Glu)-CO-(CH2)16-CO2H, Aib20, C-terminal amide (NH2)) [Example 302]	98.6	0.268	98.4	2.19
YXEGTFTSDYSILLDKKAQXAFIEYLIEGGPSSGAPPPS (Aib2, K17 conjugated to (2-[2-(2-Amino-ethoxy)-ethoxy]-acetyl)2-(γ-Glu)-CO-(CH2)16-CO2H, Aib20, C-terminal amide (NH2)) [Example 315]	44.2	0.601	25.4	19.9
Y[Aib]EGTFTSDYSILLDKK([AEEA-AEEA-γGlu-C18 diacid])AQ[Aib]AFIEYLIEGG-NH2 (N-terminus assumed; SMILES CC[C@H](C)[C@H](NC(=O)[C@H](CC(C)C)NC(=O)[C@H](Cc1ccc(O)cc1)NC(=O)[C@H](CCC(=O)O)NC(=O)[C@@H](NC(=O)[C@H](Cc1ccccc1)NC(=O)[C@H](C)NC(=O)C(C)(C)NC(=O)[C@H](CCC(N)=O)NC(=O)[C@H](C)NC(=O)[C@H](CCCCNC(=O)COCCOCCNC(=O)COCCOCCNC(=O)CC[C@H](NC(=O)CCCCCCCCCCCCCCCCC(=O)O)C(=O)O)NC(=O)[C@H](CCCCN)NC(=O)[C@H](CC(=O)O)NC(=O)[C@H](CC(C)C)NC(=O)[C@H](CC(C)C)NC(=O)[C@@H](NC(=O)[C@H](CO)NC(=O)[C@H](Cc1ccc(O)cc1)NC(=O)[C@H](CC(=O)O)NC(=O)[C@H](CO)NC(=O)[C@@H](NC(=O)[C@H](Cc1ccccc1)NC(=O)[C@@H](NC(=O)CNC(=O)[C@H](CCC(=O)O)NC(=O)C(C)(C)NC(=O)[C@@H](N)Cc1ccc(O)cc1)[C@@H](C)O)[C@@H](C)O)[C@@H](C)CC)[C@@H](C)CC)C(=O)N[C@@H](CCC(=O)O)C(=O)NCC(=O)NCC(N)=O) [Example 267]	62.3	0.867	16.5	9.01
Y[Aib]EGTFTSDYSILLDKK([AEEA-AEEA-γGlu-C18 diacid])AQ[Aib]AFIEYLIAGGPSSG-NH2 (N-terminus assumed; SMILES CC[C@H](C)[C@H](NC(=O)[C@H](CC(C)C)NC(=O)[C@H](Cc1ccc(O)cc1)NC(=O)[C@H](CCC(=O)O)NC(=O)[C@@H](NC(=O)[C@H](Cc1ccccc1)NC(=O)[C@H](C)NC(=O)C(C)(C)NC(=O)[C@H](CCC(N)=O)NC(=O)[C@H](C)NC(=O)[C@H](CCCCNC(=O)COCCOCCNC(=O)COCCOCCNC(=O)CC[C@H](NC(=O)CCCCCCCCCCCCCCCCC(=O)O)C(=O)O)NC(=O)[C@H](CCCCN)NC(=O)[C@H](CC(=O)O)NC(=O)[C@H](CC(C)C)NC(=O)[C@H](CC(C)C)NC(=O)[C@@H](NC(=O)[C@H](CO)NC(=O)[C@H](Cc1ccc(O)cc1)NC(=O)[C@H](CC(=O)O)NC(=O)[C@H](CO)NC(=O)[C@@H](NC(=O)[C@H](Cc1ccccc1)NC(=O)[C@@H](NC(=O)CNC(=O)[C@H](CCC(=O)O)NC(=O)C(C)(C)NC(=O)[C@@H](N)Cc1ccc(O)cc1)[C@@H](C)O)[C@@H](C)O)[C@@H](C)CC)[C@@H](C)CC)C(=O)N[C@@H](C)C(=O)NCC(=O)NCC(=O)N1CCC[C@H]1C(=O)N[C@@H](CO)C(=O)N[C@@H](CO)C(=O)NCC(N)=O) [Example 272]	66.5	0.651		> 12000
Y[Aib]EGTFTSDYSILLDKK([AEEA-AEEA-γGlu-C18 diacid])AQ[Aib]AFIEYLIEGGPSSG-NH2 (N-terminus assumed; SMILES CC[C@H](C)[C@H](NC(=O)[C@H](CC(C)C)NC(=O)[C@H](Cc1ccc(O)cc1)NC(=O)[C@H](CCC(=O)O)NC(=O)[C@@H](NC(=O)[C@H](Cc1ccccc1)NC(=O)[C@H](C)NC(=O)C(C)(C)NC(=O)[C@H](CCC(N)=O)NC(=O)[C@H](C)NC(=O)[C@H](CCCCNC(=O)COCCOCCNC(=O)COCCOCCNC(=O)CC[C@H](NC(=O)CCCCCCCCCCCCCCCCC(=O)O)C(=O)O)NC(=O)[C@H](CCCCN)NC(=O)[C@H](CC(=O)O)NC(=O)[C@H](CC(C)C)NC(=O)[C@H](CC(C)C)NC(=O)[C@@H](NC(=O)[C@H](CO)NC(=O)[C@H](Cc1ccc(O)cc1)NC(=O)[C@H](CC(=O)O)NC(=O)[C@H](CO)NC(=O)[C@@H](NC(=O)[C@H](Cc1ccccc1)NC(=O)[C@@H](NC(=O)CNC(=O)[C@H](CCC(=O)O)NC(=O)C(C)(C)NC(=O)[C@@H](N)Cc1ccc(O)cc1)[C@@H](C)O)[C@@H](C)O)[C@@H](C)CC)[C@@H](C)CC)C(=O)N[C@@H](CCC(=O)O)C(=O)NCC(=O)NCC(=O)N1CCC[C@H]1C(=O)N[C@@H](CO)C(=O)N[C@@H](CO)C(=O)NCC(N)=O) [Example 266]	63.4	0.865	17.1	16
